US20240307496A1, “METHOD AND PHARMACEUTICAL COMBINATION FOR PREVENTING CANCER RECURRENCE” (priority 2021, published 2024)

Tests used:
[1] = system: transplanted colorectal cancer CT26; assay: Prevention of recurrence of transplanted colorectal cancer CT26 in mice; assay type: in vivo, BALB/c mice; details: for anticancer activity / prevention of tumor recurrence (conclusion): CT26 recurrence simulated with low-density tumor inoculation; for survival rate during the observation period / Tumor incidence: gemcitabine 60 mg/kg i.p.; for Tumor incidence: tumor volume ≥ 62.5 mm^3 positive, then stopped 56 days
Method: On the day after tumor inoculation, they were randomly divided into the following experiment groups: PEG-mIFN-α4 only group (N=20, 10 females and 10 males), normal saline control group (N=20, 10 females and 10 males), gemcitabine only group (N=20, 10 females and 10 males), and PEG-mIFN-α4 combined with gemcitabine group (N=20, 10 females and 10 males).
PEG-mIFN-α4 was administered by subcutaneous injection on the back of the neck, with a dose of 1 microgram per mouse. Administration began on the day after grouping. In the PEG-miFN-α4 only group, PEG-mFN-α4 was administered once a week for 12 times, and then stopped for 56 days. In the PEG-mIFN-α4 combined with gemcitabine group, both PEG-mIFN-α4 and gemcitabine were administered once a week for 12 consecutive times, and then stopped for 56 days. In the gemcitabine only group, gemcitabine was administered once a week for 12 times, and then stopped for 56 days. The normal saline control group was given an equal volume of normal saline. Gemcitabine was administered by intraperitoneal injection at a dose of 60 mg/kg.
(§1) The tumor incidence of each group was calculated when the tumor volume was greater than or equal to 62.5 mm^3, which was determined as positive for tumor occurrence.

[2] = system: transplanted liver cancer H22; assay: Prevention of recurrence of transplanted liver cancer H22 in mice; assay type: in vivo, BALB/c mice; details: for anticancer activity / prevention of tumor recurrence (conclusion): H22 recurrence simulated with low-density tumor inoculation; for Tumor incidence: tumor volume ≥ 62.5 mm^3 positive, then stopped 103 days, PEG-mIFN-α4 1 μg/mouse s.c.
From the text: After tumor treatment, the tumor load in patient's body is relatively low, so a low tumor grafting volume is used to simulate the state after tumor treatment. […] Three days after tumor inoculation, they were randomly divided into the following experiment groups: PEG-mIFN-α4 group (N=28, 14 females, 14 males). PEG-mIFN-α4 combined with gemcitabine group (N=28, 14 females, 14 males), normal saline control group (N=28, 14 females, 14 males), and gemcitabine only group (N=28, 14 females, 14 males).
PEG-mIFN-α4 was administered by subcutaneous injection on the back of the neck, with a dose of 1 microgram per mouse. Administration began on the day after grouping. In the PEG-mIFN-α4 group, PEG-mIFN-α4 was administered once a week for 9 weeks, and then stopped for 103 days. In the PEG-mIFN-α4 combined with gemcitabine group, PEG-mIFN-α4 and gemcitabine were administered once a week for 9 weeks, and then stopped for 103 days. In the gemcitabine alone group, gemcitabine was administered once a week for 9 weeks, and then stopped for 103 days. The normal saline control group was given an equal volume of normal saline. Gemcitabine was injected intraperitoneally at a dose of 60 mg/kg.
as §1

[3] = system: mouse fibroblast/encephalomyocarditis vinis (L929/EMCV); assay: L929/EMCV cytopathic inhibition method, specific activity; assay type: cell-based; details: commercial mIFN-α4 (R&D) as the standard
Method: The bacterial endotoxin content of the deglycosylated mIFN-α4 stock solution was determined by the Limulus reagent method as lower than 60 EU/mg, specific activity was determined as 5.4×10^8 U/mg by using the commercial mIFN-α4 (R&D, catalog number 12115-1) as the standard, and by using the mouse fibroblast/encephalomyocarditis vinis (L929/EMCV) cytopathic inhibition method.
The bacterial endotoxin content of the PEG-mIFN-α4 stock solution was determined by the Limulus reagent method as lower than 15 EU/mg. Specific activity was determined as 6.1×10^6 U/mg by using the commercial mIFN-α4 (R&D, catalog number 12115-1) as the standard, and by using the mouse fibroblast/encephalomyocarditis vinis (L929/EMCV) cytopathic inhibition method.

[4] = set-up: species or system BALB/c mice; details: mouse, in vivo, sc
From the text: Note: In the pharmacokinetic analysis, for samples with blood concentration lower than the quantification lower limit, the sample before the peak blood concentration was counted as 0, and the sample after the peak was expressed as BLQ.

[5] = by day 134 after tumor inoculation, once a week for 12 times, PEG-mIFN-α4 1 μg/mouse s.c.
[6] = by day 134 after tumor inoculation, once a week for 12 times, PEG-mIFN-α4 1 μg/mouse s.c., listed as gemcitabine
[7] = by day 166 after tumor inoculation, once a week for 9 weeks, gemcitabine 60 mg/kg i.p.

## Nc1ccn([C@@H]2O[C@H](CO)[C@@H](O)C2(F)F)c(=O)n1 [Gemcitabine, reference compound]
[1]
  anticancer activity / prevention of tumor recurrence (conclusion): could effectively prevent tumor recurrence
[1]; [5]
  survival rate during the observation period: period: 55.0%
  Tumor incidence: 50.0%
[1]; [6]
  survival rate during the observation period: 55.0%
  Tumor incidence: 50%
[2]
  anticancer activity / prevention of tumor recurrence (conclusion): could effectively prevent tumor recurrence
[2]; [7]
  Median survival time (time after tumor inoculation, days): 93.0 days
  Tumor incidence: 57.1%
[2]; by day 166 after tumor inoculation, once a week for 9 weeks, gemcitabine 60 mg/kg i.p., listed as gemcitabine
  Tumor incidence: 57.1%

B1: deglycosylated mIFN-α4: recombinant mouse interferon α4 (GenBank NP_034634) expressed in Pichia pastoris, glycosyl groups removed with glycosidase (protein, UniProt P07351 25-186, looked up)
Interferon alpha-4: CDLPHTYNLGNKRALTVLEEMRRLPPLSCLKDRKDFGFPLEKVDNQQIQKAQAILVLRDLTQQILNLFTSKDLSATWNATLLDSFCNDLHQQLNDLKACVMQEPPLTQEDSLLAVRTYFHRITVYLRKKKHSLCAWEVIRAEVWRALSSSTNLLARLSEEKE
modifications: deglycosylated
notes: recombinant mouse interferon α4 (GenBank NP_034634) expressed in Pichia pastoris, glycosyl groups removed with glycosidase
[3]
  specific activity: 5.4×10^8 U/mg

B2: PEG-mIFN-α4: deglycosylated recombinant mouse interferon α4 modified with 40kD Y-type polyethylene glycol succinimide ester (YPEG-NHS); SEQ ID NO: 6 (protein)
chain: CDLPHTYNLGNKRALTVLEEMRRLPPLSCLKDRKDFGFPLEKVDNQQIQKAQAILVLRDLTQQILNLFTSKDLSATWNATLLDSFCNDLHQQLNDLKACVMQEPPLTQEDSLLAVRTYFHRITVYLRKKKHSLCAWEVIRAEVWRALSSSTNLLARLSEEKE
modifications: 40kD Y-type PEG; deglycosylated; peginterferon murine alpha 4
[3]
  specific activity: 6.1×10^6 U/mg
[1]; CT26, day 134
  tumor incidence compared with normal saline control group: lower
[1]
  anticancer activity / prevention of tumor recurrence (conclusion): could effectively prevent tumor recurrence
[1]; [5]
  Median survival time (time after tumor inoculation, days): 68.5 days
  Tumor incidence: 95%
[4]
  Cl_F—obs: 0.07 mL/h
  T1/2: 28.3 h
  Tmax: 24.0 h
  Vz_F—obs: 2.91 mL
  elimination half-life (T1): 28.3 h
  plasma concentration peak time (Tmax): 24 h
[2]; H22, day 166
  tumor incidence compared with normal saline control group: lower
[2]
  anticancer activity / prevention of tumor recurrence (conclusion): could effectively prevent tumor recurrence
[2]; [7]
  Tumor incidence: 32.1%
